Assay results from the supplement of paper PMC10598134.
± gives the standard deviation.

Experiment: collision cross section of modified peptide (TIMS, N2, iRT-aligned); higher = larger / more extended gas-phase ion
Method: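 1/K0 was aligned run-wise to spiked iRT peptides and converted to CCS in N2 (Mason-Schamp). Values are the mean of 1-3 technical replicates for the most abundant feature at each charge state.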

[1] = charge state: 2, modification: hydroxyisobutyryl
[2] = charge state: 3, modification: hydroxyisobutyryl
[3] = charge state: 2, modification: Citrullination (R)
[4] = charge state: 2, modification: Methyl (R)
[5] = charge state: 2, modification: Nitro (Y)
[6] = charge state: 2, modification: Phospho (Y)
[7] = charge state: 2, modification: Acetyl (K)
[8] = charge state: 2, modification: Biotin
[9] = charge state: 3, modification: Biotin
[10] = charge state: 2, modification: Butyryl
[11] = charge state: 2, modification: Crotonyl
[12] = charge state: 2, modification: Dimethyl (K)
[13] = charge state: 3, modification: Dimethyl (K)
[14] = charge state: 2, modification: Formyl
[15] = charge state: 2, modification: Glutarylation
[16] = charge state: 3, modification: Glutarylation
[17] = charge state: 2, modification: GlyGly (K)
[18] = charge state: 3, modification: GlyGly (K)
[19] = charge state: 2, modification: Malonyl
[20] = charge state: 2, modification: Methyl (K)
[21] = charge state: 3, modification: Methyl (K)
[22] = charge state: 2, modification: Propionyl
[23] = charge state: 2, modification: Succinyl
[24] = charge state: 3, modification: Succinyl
[25] = charge state: 2, modification: Trimethyl (K)
[26] = charge state: 3, modification: Trimethyl (K)
[27] = charge state: 3, modification: Acetyl (K)
[28] = charge state: 3, modification: Butyryl
[29] = charge state: 3, modification: Crotonyl
[30] = charge state: 3, modification: Formyl
[31] = charge state: 3, modification: Malonyl

AGQKLIDVNHYAK [_AGQK(hydroxyisobutyryl)LIDVNHYAK_]
collision cross section [1]: 436.67 ± 0.29 Å²
collision cross section [2]: 483.82 ± 2.8 Å²

AGRGFSLEELR [_AGR(Citrullination (R))GFSLEELR_]
collision cross section [3]: 372.54 ± 0.24 Å²

AGRGFSLEELR [_AGR(Methyl (R))GFSLEELR_]
collision cross section [4]: 379.24 Å²
collision cross section (charge state: 3, modification: Methyl (R)): 460.11 ± 2.4 Å²

AIEINPDSAQPYK [_AIEINPDSAQPY(Nitro (Y))K_]
collision cross section [5]: 401.15 ± 0.18 Å²

AIEINPDSAQPYK [_AIEINPDSAQPY(Phospho (Y))K_]
collision cross section [6]: 402.87 ± 0.061 Å²

AIQLNPSYIR [_AIQLNPSY(Nitro (Y))IR_]
collision cross section [5]: 380.21 ± 0.17 Å²

AIQLNPSYIR [_AIQLNPSY(Phospho (Y))IR_]
collision cross section [6]: 384.89 ± 0.65 Å²

ALASIDSKLNQAK [_ALASIDSK(Acetyl (K))LNQAK_]
collision cross section [7]: 399.37 ± 2 Å²

ALASIDSKLNQAK [_ALASIDSK(Biotin)LNQAK_]
collision cross section [8]: 417.14 ± 2.9 Å²
collision cross section [9]: 481.19 Å²

ALASIDSKLNQAK [_ALASIDSK(Butyryl)LNQAK_]
collision cross section [10]: 403.96 ± 0.85 Å²

ALASIDSKLNQAK [_ALASIDSK(Crotonyl)LNQAK_]
collision cross section [11]: 401.19 ± 0.9 Å²

ALASIDSKLNQAK [_ALASIDSK(Dimethyl (K))LNQAK_]
collision cross section [12]: 412.97 ± 1.1 Å²
collision cross section [13]: 457.79 ± 2.1 Å²

ALASIDSKLNQAK [_ALASIDSK(Formyl)LNQAK_]
collision cross section [14]: 395.38 ± 0.55 Å²

ALASIDSKLNQAK [_ALASIDSK(Gluratylation)LNQAK_]
collision cross section [15]: 406.86 ± 0.54 Å²
collision cross section [16]: 470.57 Å²

ALASIDSKLNQAK [_ALASIDSK(GlyGly (K))LNQAK_]
collision cross section [17]: 417.48 ± 0.98 Å²
collision cross section [18]: 469.2 ± 1.3 Å²

ALASIDSKLNQAK [_ALASIDSK(Malonyl)LNQAK_]
collision cross section [19]: 399.65 ± 0.028 Å²

ALASIDSKLNQAK [_ALASIDSK(Methyl (K))LNQAK_]
collision cross section [20]: 411.6 ± 0.9 Å²
collision cross section [21]: 462.35 ± 4.6 Å²

ALASIDSKLNQAK [_ALASIDSK(Propionyl)LNQAK_]
collision cross section [22]: 398.32 Å²

ALASIDSKLNQAK [_ALASIDSK(Succinyl)LNQAK_]
collision cross section [23]: 408.18 ± 0.54 Å²
collision cross section [24]: 477.06 Å²

ALASIDSKLNQAK [_ALASIDSK(Trimethyl (K))LNQAK_]
collision cross section [25]: 417.47 ± 0.6 Å²
collision cross section [26]: 444.8 ± 1.8 Å²

ALASIDSKLNQAK [_ALASIDSK(hydroxyisobutyryl)LNQAK_]
collision cross section [1]: 410.87 ± 9.2 Å²

ALLQAKASGK [_ALLQAK(Acetyl (K))ASGK_]
collision cross section [7]: 343.77 ± 0.2 Å²

ALLQAKASGK [_ALLQAK(Butyryl)ASGK_]
collision cross section [10]: 352.22 ± 2.3 Å²

ALLQAKASGK [_ALLQAK(Crotonyl)ASGK_]
collision cross section [11]: 351.6 ± 1.3 Å²

ALLQAKASGK [_ALLQAK(Dimethyl (K))ASGK_]
collision cross section [12]: 351.53 ± 0.51 Å²

ALLQAKASGK [_ALLQAK(Formyl)ASGK_]
collision cross section [14]: 340.27 ± 0.87 Å²

ALLQAKASGK [_ALLQAK(Gluratylation)ASGK_]
collision cross section [15]: 353.63 ± 0.71 Å²

ALLQAKASGK [_ALLQAK(GlyGly (K))ASGK_]
collision cross section [17]: 355.61 ± 0.57 Å²

ALLQAKASGK [_ALLQAK(Methyl (K))ASGK_]
collision cross section [20]: 342.45 ± 0.79 Å²
collision cross section [21]: 423.28 ± 5 Å²

ALLQAKASGK [_ALLQAK(Propionyl)ASGK_]
collision cross section [22]: 350.75 ± 0.49 Å²

ALLQAKASGK [_ALLQAK(Succinyl)ASGK_]
collision cross section [23]: 349.13 ± 0.82 Å²

ALLQAKASGK [_ALLQAK(Trimethyl (K))ASGK_]
collision cross section [25]: 354.6 ± 1.6 Å²
collision cross section [26]: 406.65 Å²

ALLQAKASGK [_ALLQAK(hydroxyisobutyryl)ASGK_]
collision cross section [1]: 353.14 ± 1.3 Å²

ALYETELADAR [_ALY(Nitro (Y))ETELADAR_]
collision cross section [5]: 387.94 ± 0.55 Å²

ALYETELADAR [_ALY(Phospho (Y))ETELADAR_]
collision cross section [6]: 383.83 ± 0.063 Å²

ANAIGRGAK [_ANAIGR(Citrullination (R))GAK_]
collision cross section [3]: 313.03 ± 0.86 Å²

ANAIGRGAK [_ANAIGR(Methyl (R))GAK_]
collision cross section [4]: 322.43 ± 1.8 Å²

ANEKTESSSAQQVAVSR [_ANEK(Acetyl (K))TESSSAQQVAVSR_]
collision cross section [7]: 433.42 ± 1.8 Å²
collision cross section [27]: 527.9 ± 0.37 Å²

ANEKTESSSAQQVAVSR [_ANEK(Biotin)TESSSAQQVAVSR_]
collision cross section [8]: 464.95 ± 0.23 Å²
collision cross section [9]: 569.61 ± 0.95 Å²

ANEKTESSSAQQVAVSR [_ANEK(Butyryl)TESSSAQQVAVSR_]
collision cross section [10]: 441.41 ± 1.7 Å²
collision cross section [28]: 534.65 ± 3.5 Å²

ANEKTESSSAQQVAVSR [_ANEK(Crotonyl)TESSSAQQVAVSR_]
collision cross section [11]: 431.52 ± 7.9 Å²
collision cross section [29]: 536.98 ± 2.1 Å²

ANEKTESSSAQQVAVSR [_ANEK(Dimethyl (K))TESSSAQQVAVSR_]
collision cross section [13]: 490.79 ± 1.6 Å²

ANEKTESSSAQQVAVSR [_ANEK(Formyl)TESSSAQQVAVSR_]
collision cross section [14]: 431.82 ± 1.4 Å²
collision cross section [30]: 523.66 ± 4.2 Å²

ANEKTESSSAQQVAVSR [_ANEK(Gluratylation)TESSSAQQVAVSR_]
collision cross section [15]: 449.31 ± 1.1 Å²
collision cross section [16]: 546.17 ± 2 Å²

ANEKTESSSAQQVAVSR [_ANEK(GlyGly (K))TESSSAQQVAVSR_]
collision cross section [17]: 467.32 ± 0.84 Å²
collision cross section [18]: 498.93 ± 1.1 Å²

ANEKTESSSAQQVAVSR [_ANEK(Malonyl)TESSSAQQVAVSR_]
collision cross section [19]: 438.58 ± 1 Å²
collision cross section [31]: 534.15 ± 1.9 Å²

ANEKTESSSAQQVAVSR [_ANEK(Methyl (K))TESSSAQQVAVSR_]
collision cross section [20]: 440.42 Å²
collision cross section [21]: 486.23 ± 1.8 Å²

ANEKTESSSAQQVAVSR [_ANEK(Propionyl)TESSSAQQVAVSR_]
collision cross section [22]: 439.84 ± 1.6 Å²
collision cross section (charge state: 3, modification: Propionyl): 533.7 Å²

ANEKTESSSAQQVAVSR [_ANEK(Succinyl)TESSSAQQVAVSR_]
collision cross section [23]: 443.48 ± 0.35 Å²
collision cross section [24]: 533.43 ± 0.35 Å²

ANEKTESSSAQQVAVSR [_ANEK(Trimethyl (K))TESSSAQQVAVSR_]
collision cross section [26]: 495.46 ± 1.6 Å²

ANEKTESSSAQQVAVSR [_ANEK(hydroxyisobutyryl)TESSSAQQVAVSR_]
collision cross section [1]: 442.41 ± 0.29 Å²
collision cross section [2]: 538.5 ± 0.04 Å²

ANLEKAQAELVGTADEATR [_ANLEK(Acetyl (K))AQAELVGTADEATR_]
collision cross section [7]: 471.91 ± 3.1 Å²
collision cross section [27]: 570.31 ± 0.74 Å²

ANLEKAQAELVGTADEATR [_ANLEK(Biotin)AQAELVGTADEATR_]
collision cross section [8]: 492.92 Å²

ANLEKAQAELVGTADEATR [_ANLEK(Butyryl)AQAELVGTADEATR_]
collision cross section [10]: 479.49 ± 1.1 Å²
collision cross section [28]: 578.23 ± 2 Å²

ANLEKAQAELVGTADEATR [_ANLEK(Crotonyl)AQAELVGTADEATR_]
collision cross section [11]: 478.55 ± 1.5 Å²
collision cross section [29]: 577.75 ± 0.5 Å²

ANLEKAQAELVGTADEATR [_ANLEK(Dimethyl (K))AQAELVGTADEATR_]
collision cross section [13]: 525.41 ± 0.76 Å²

ANLEKAQAELVGTADEATR [_ANLEK(Formyl)AQAELVGTADEATR_]
collision cross section [14]: 471.04 ± 1.4 Å²
collision cross section [30]: 566.89 ± 0.82 Å²

ANLEKAQAELVGTADEATR [_ANLEK(Gluratylation)AQAELVGTADEATR_]
collision cross section [15]: 478.84 ± 1.4 Å²
collision cross section [16]: 584.83 ± 0.77 Å²

ANLEKAQAELVGTADEATR [_ANLEK(GlyGly (K))AQAELVGTADEATR_]
collision cross section [17]: 487.2 ± 1.5 Å²
collision cross section [18]: 513.9 ± 1.3 Å²

ANLEKAQAELVGTADEATR [_ANLEK(Malonyl)AQAELVGTADEATR_]
collision cross section [19]: 476.69 ± 0.96 Å²
collision cross section [31]: 576.12 ± 0.95 Å²

ANLEKAQAELVGTADEATR [_ANLEK(Methyl (K))AQAELVGTADEATR_]
collision cross section [20]: 471.05 Å²
collision cross section [21]: 523.1 ± 0.87 Å²

ANLEKAQAELVGTADEATR [_ANLEK(Succinyl)AQAELVGTADEATR_]
collision cross section [23]: 479.08 ± 0.78 Å²
collision cross section [24]: 580.29 ± 0.37 Å²

ANLEKAQAELVGTADEATR [_ANLEK(Trimethyl (K))AQAELVGTADEATR_]
collision cross section [26]: 528.43 ± 0.88 Å²

ANLEKAQAELVGTADEATR [_ANLEK(hydroxyisobutyryl)AQAELVGTADEATR_]
collision cross section [1]: 473.77 ± 6.8 Å²
collision cross section [2]: 579.16 ± 1.2 Å²

APEYLHR [_APEY(Nitro (Y))LHR_]
collision cross section [5]: 321.02 ± 1.2 Å²

APEYLHR [_APEY(Phospho (Y))LHR_]
collision cross section [6]: 334.14 ± 1.5 Å²

APIISGVTK [_APIIS(HexNAc (ST))GVTK_]
collision cross section (charge state: 2, modification: HexNAc (ST)): 340.53 ± 0.64 Å²
